What was measured:
[1] = target: T1, hCXCR4/Gαqi5 (Homo sapiens, UniProt P61073); experiment: CXCL12-induced inositol phosphate accumulation in HEK293T cells co-transfected with CXCR4 and Gαqi5; type: cell-based; details: 30 nM CXCL12
T1 construct: expressed in transfected cells; host or cells: HEK293T
Description: In an effort to functionally characterize the Nanobodies 238D2 and 238D4, the inventors measured their ability to activate G-protein signaling or to inhibit the CXCL12-induced G-protein signaling in HEK293T cells transiently co-transfected with cDNAs encoding CXCR4 and Gαqi5. This assay is based upon the use of the chimeric Gαqi5-protein that contains of a Gαq backbone with the 5 C-terminal amino acids replaced by those from Gαi. The chimeric G-protein is activated by CXCR4 like a Gαi subunit but transduces signals like Gαq proteins (Coward, P., et al., Chimeric G Proteins Allow a High-Throughput Signaling Assay of […] Receptors, Analytical Biochemistry (1999) 270: 242-248). Thus, the activation of Gαqi5 can be quantified by the measurement of accumulated inositol phosphates.
Methods: On day 1, HEK293T cells were plated out at a density of 2 million cells/dish. On day 2, these cells were transfected with 2.5 μg CXCR4 DNA and 2.5 μg Gαqi5, using the PEI method. Cells were plated out the next day in poly-L-lysine coated 24 well plates (500 μl/well) and labeled after 4-6 hours with 2 μCi/ml 3H-inositol in inositol-free medium. […] After this final incubation, the reaction was stopped by aspiration of stimulation medium and addition of 10 mM formic acid (FIG. 4).

[2] = target: CXCR7 point mutants (Homo sapiens, UniProt P25106, M33Q); experiment: Binding to a set of 10 point mutants of CXCR7; details: M33Q point mutant
CXCR7 point mutants (Homo sapiens, UniProt P25106, M33Q), sequence (P25106 whole entry M33Q): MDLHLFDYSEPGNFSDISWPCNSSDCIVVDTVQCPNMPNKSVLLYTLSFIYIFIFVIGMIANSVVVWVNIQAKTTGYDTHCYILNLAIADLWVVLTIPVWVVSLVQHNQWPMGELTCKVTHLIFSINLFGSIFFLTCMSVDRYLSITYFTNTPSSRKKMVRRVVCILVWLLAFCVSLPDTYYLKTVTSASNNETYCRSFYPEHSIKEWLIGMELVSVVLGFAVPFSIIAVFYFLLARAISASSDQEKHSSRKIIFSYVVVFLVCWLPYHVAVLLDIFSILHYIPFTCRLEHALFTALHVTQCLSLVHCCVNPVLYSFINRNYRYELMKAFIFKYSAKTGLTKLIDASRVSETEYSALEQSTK
Protocol: (§1) In a third approach, Nanobodies were tested for their binding to a set of 10 point mutants of CXCR7 (S9A, F14Y, 117L, S18N, W19A, S23G, D25A, V32A, M33Q, N36T), which yielded information on the individual NANOBODY® (VHH) epitopes.

[3] = target: CXCR7 point mutants (Homo sapiens, UniProt P25106, W19A); experiment: Binding to a set of 10 point mutants of CXCR7; details: W19A point mutant
CXCR7 point mutants (Homo sapiens, UniProt P25106, W19A), sequence (P25106 whole entry W19A): as the sequence (P25106 whole entry M33Q) above, with W19A, Q33M counted along it
Protocol: as §1

[4] = target: CXCR7 (Homo sapiens, UniProt P25106); experiment: Competition with Alexa647-labelled 14G03 in FACS analysis; type: binding; details: Alexa647-labelled 14G03, FACS
CXCR7, sequence (P25106 whole entry): as the sequence (P25106 whole entry M33Q) above, with Q33M counted along it
Description: Nanobodies 08A05, 08A10, 07C03, 01C10 and 14G03, Mab 8F11 (Biolegend), Mab 11G8 (R&D) and Mab 9C4 (MBL) were further tested for competition with Alexa647-labelled 14G03 in FACS analysis.

[5] = target: T2, CXCR4 (Homo sapiens, UniProt P61073); experiment: [125I]-CXCL12 competition binding on membranes from HEK293T cells transiently expressing CXCR4 (Table I)
T2 construct: expressed in transfected cells; host or cells: HEK293T (membranes)
T2 sequence (P61073 whole entry): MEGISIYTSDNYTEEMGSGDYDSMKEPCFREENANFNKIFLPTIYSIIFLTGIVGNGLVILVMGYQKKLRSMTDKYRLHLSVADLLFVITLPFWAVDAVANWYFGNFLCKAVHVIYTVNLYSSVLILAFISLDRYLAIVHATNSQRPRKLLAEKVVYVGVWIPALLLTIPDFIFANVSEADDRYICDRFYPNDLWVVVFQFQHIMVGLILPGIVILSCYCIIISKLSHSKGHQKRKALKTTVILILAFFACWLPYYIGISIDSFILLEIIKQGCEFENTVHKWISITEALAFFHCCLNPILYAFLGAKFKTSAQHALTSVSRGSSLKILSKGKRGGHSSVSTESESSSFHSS
Description: Another example of a therapeutic relevant GPCR is CXCR4, which was previously identified as such in Table C and Table D of US20100062004. This representative GPCR has now been further investigated by the present inventors. Different pools of highly similar clones able to inhibit specific [^125I]-CXCL12 binding were identified in a CXCR4 competition binding assay. Nanobodies representing these different pools were purified and further pharmacologically analyzed as detailed in the Example section of WO09/138519. In particular two representative monovalent Nanobodies 238D2 and 238D4 and different mono- and heterobivalent constructs thereof have been analyzed in depth:
Additionally, the inventors engineered a series of mono-specific bivalent and biparatopic CXCR4 constructs. […] Overall, short peptide linkers were used favoring binding to CXCR4 monomers.
In membrane binding experiments mAb 12G5, which is a known neutralizing CXCR4 antibody, seems only to displace 50% of radiolabeled 125I-CXCL12 (CXCR4 ligand).

[6] = target: T3, PTHR (Homo sapiens, UniProt Q03431); experiment: Binding of clones measured on Biacore (Table B-3)
T3 sequence (Q03431 27-593): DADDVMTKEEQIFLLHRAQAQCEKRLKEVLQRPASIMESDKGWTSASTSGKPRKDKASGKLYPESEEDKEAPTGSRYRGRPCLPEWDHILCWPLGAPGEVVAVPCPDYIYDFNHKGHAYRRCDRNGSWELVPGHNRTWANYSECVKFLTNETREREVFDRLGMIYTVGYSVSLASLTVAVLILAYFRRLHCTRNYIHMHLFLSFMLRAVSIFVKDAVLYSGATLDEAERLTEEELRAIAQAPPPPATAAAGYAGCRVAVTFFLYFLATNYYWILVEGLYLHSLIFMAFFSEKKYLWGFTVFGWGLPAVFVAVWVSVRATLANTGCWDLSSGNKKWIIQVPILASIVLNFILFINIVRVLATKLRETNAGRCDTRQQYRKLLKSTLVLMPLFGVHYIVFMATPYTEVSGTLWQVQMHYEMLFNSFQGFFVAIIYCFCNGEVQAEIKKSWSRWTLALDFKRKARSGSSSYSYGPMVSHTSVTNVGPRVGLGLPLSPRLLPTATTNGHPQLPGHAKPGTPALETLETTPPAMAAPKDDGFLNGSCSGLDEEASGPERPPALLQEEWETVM
Protocol: (§2) Binding of 4 clones directed against CB1R and of 4 clones against PTHR was measured on Biacore.

[7] = target: CB1R; experiment: Binding of clones measured on Biacore (Table B-2); details: read-out: Binding of clones against CB1R
Protocol: as §2

T1 sequence (P61073 whole entry): as the sequence (P61073 whole entry) above

## c1cc(CN2CCCNCCNCCCNCC2)ccc1CN1CCCNCCNCCCNCC1 [AMD3100, plerixafor, reference compound]
[1]
  concentration needed to inhibit CXCR4 function: 1 µM

B1: 08A05: Nanobody against human CXCR7, Group 2 (protein)
VHH: EVQLVESGGGLVQAGDSLRLSCAASGLTFSNYDMGWFRQAPGKEREFVGASWWSGGAPYYSDSVKGRFTISRDNAKNTVYLQANSLRPEDTAVYYCAAKRLRSFASGGSYDYWGQGTQVTVSS
modifications: Nanobody, Nanobody constructs or fragments thereof
[2]
  epitope includes residue M33: included residue M33
[3]
  effect of W19A mutation on binding: did not affect
[4]
  competition with 14G03 binding to CXCR7: compete

B2: 01C10: Nanobody against human CXCR7, Group 1 (protein)
VHH: EVQLVESGGGLVQTGASLRLSCAASGRTFSNYAMGWFRQAPGKERERVAAITPRAFTTYYADSVKGRFTISRDNAKNTAYLQMVSLKPEDTAVYYCAAQLVGSGSNLGRQESYAYWGQGTQVTVSS
modifications: Nanobody, Nanobody constructs or fragments thereof
[3]
  effect of W19A mutation on binding: affected
[4]
  competition with 14G03 binding to CXCR7: does not

B3: L13 (protein)
chain: EVQLMESGGGLVQAGGSLRLSCAASGRTFNNYAMGWFRRAPGKEREFVAAITRSGVRSGVSAIYGDSVKDRFTISRDNAKNTLYLQMNSLKPEDTAVYTCAASAIGSGALRRFEYDYSGQGTQVTVSSGGGGSGGGGSGGGGSGGGGSEVQLMESGGGLVQAGGSLRLSCAASGRTFNNYAMGWFRRAPGKEREFVAAITRSGVRSGVSAIYGDSVKDRFTISRDNAKNTLYLQMNSLKPEDTAVYTCAASAIGSGALRRFEYDYSGQGTQVTVSS
[5]; membranes from HEK293T cells transiently expressing CXCR4, means ± S.E.M.
  Displacem. (%) (maximal displacement of [125I]-CXCL12): 96 ± 5%

B4: vHH23A3 (protein)
VHH: EVQLVESGGGLVQAGGSLRLSCAASGLTFSNYAMGWFRQAPGKEREWVASINWSGGSTYYEDSVEGRFTISRDNAKNTVNLQMNSLKPEDTAVYYCAAKRGHYSREYDYWGQGTQVTVSS
[6]; PTHR − CaCl2
  Kd: 22 nM

B5: vHH26F2 (protein)
VHH: EVQLVESGGGLVQAGGSLRLSCVASGFSFDDYAIGWFRQAPGQDREPLACITSGGTRNYNPSVMARFRIDRDNSVKTVYLQINTLKPEDTAVYYCSTELDRQGGSAHECREYDTWGQGTQVTVSS
[6]; PTHR + CaCl2
  Kd: 70 nM
[6]; PTHR Fos12
  Kd: 360 nM

B6: 238D2-20GS-238D4: biparatopic CXCR4 Nanobody, 238D2 linked to 238D4 via 20 amino acid GGGGS-repeat linker (protein)
chain: EVQLVESGGGLVQTGGSLRLSCAASGFTFSSYAMSWVRQAPGKGLEWVSGIKSSGDSTRYAGSVKGRFTISRDNAKNMLYLQMYSLKPEDTAVYYCAKSRVSRTGLYTYDNRGQGTQVTVSSGGGGSGGGGSGGGGSGGGGSEVQLMESGGGLVQAGGSLRLSCAASGRTFNNYAMGWFRRAPGKEREFVAAITRSGVRSGVSAIYGDSVKDRFTISRDNAKNTLYLQMNSLKPEDTAVYTCAASAIGSGALRRFEYDYSGQGTQVTVSS
[5]; [125I]-CXCL12 displacement, membranes from HEK293T cells transiently expressing CXCR4, read-out: Ki (nM) (receptor affinity)
  Ki: 0.36 nM
[5]; footnote a: relative to monovalent 238D2
  Rel. potency (potency relative to those of monovalent 238D2): 27
[5]; footnote b: relative to monovalent 238D4
  Rel. potency (potency relative to those of monovalent 238D4): 17
[5]; relative to monovalent 238D2
  increase in affinity to CXCR4 over monovalent counterpart 238D2: 27 fold
[5]; relative to monovalent 238D4
  increase in affinity to CXCR4 over monovalent counterpart 238D4: 17 fold
[1]; compared to monovalent counterparts and 12G5, FIG. 4
  inhibitory potency on CXCL12-induced inositol phosphate accumulation: significantly increased inhibitory potency

B7: vHH6B7 (protein)
VHH: EVQLVESGGGLVQAGGSLRLSCAASGRTLRNYDMGWFRQAPGKEREFVATIRWSTSETYYADSVKGRFTISSDNAKNTVDLQMNSLTPGDTGVYYCAARSVYSYDYNYWGQGTQVTVSS
[7]
  Kd: 12 nM

B8: vHH5G11 (protein)
VHH: EVQLVKSGGGLVQAGGSLRLSCAASGRTLSNYDMGWFRQAPGKEREFVATIRWSTGETYYTDSVKGRFTISKDNTKNTVDLQMNSLTPEDTAVYYCASRSVYSYEYNYWGQGTQVTVSS
[7]
  Kd: 12 nM

B9: vHH6H4 (protein)
VHH: EVQLVESGGGLVQAGGSLRLACAASGSIFSFNAMGWYRQAPGKQRELLAVITRDGITKYADSVKGRFTISRDNAKNTMYLQMNSLKPEDTAVYYCHTGLPTGRGSHSDYWGQGTQVTVSS
[7]
  Kd: 36 nM

B10: vHH22A3 (protein)
VHH: EVQLVESGGGLVQAGGSLRLSCAASGNIFANNIMGWYRQPPGKEREFVAHVSHDGDSMYAVSVKGRFAISRKDATNLYLQMNSLKPEDTAIYFCRLLNIPTQGRMEGFWGQGTQVTVSS
[6]; PTHR + CaCl2
  Kd: 9 nM
[6]; PTHR − CaCl2
  Kd: 17 nM

B11: 14G03: Nanobody against human CXCR7, Group 2 (protein)
VHH: EVQLVESGGGLVQPGGSLRISCAASGSIYLINYMGWYRQAPGKQRELVATLTSGGSTNYAGSVKGRFAISRDNAKNTVYLQMNSLKPEDTAVYYCNIGGTLYDRRRFESWGQGTQVTVSS
modifications: Nanobody, Nanobody constructs or fragments thereof
[2]
  epitope includes residue M33: included residue M33
[3]
  effect of W19A mutation on binding: did not affect

B12: 08A10: Nanobody against human CXCR7, Group 2 (protein)
VHH: EVQLVESGGGLVQAGGSLRLSCAASGSIFSIAAMGWYRQATGKQRELVATITDGGTTTYADSVKGRVTISRDRSANTVYLAMNNLKPDDTAVYYCYAYLRYTSRVPGDNYWGQGTQVTVSS
modifications: Nanobody, Nanobody constructs or fragments thereof
[2]
  epitope includes residue M33: included residue M33
[3]
  effect of W19A mutation on binding: did not affect
[4]
  competition with 14G03 binding to CXCR7: compete

B13: vHH26A6 (protein)
VHH: EVQLVESGGGLVQAGGSLRLSCAASRSRSSFDDMGWYRQAPGKQREFVGGITLGGSTIYADSVKGRFTISMDSARNTGYLQMNSLKPEDTAVYYCNAALDGYSGSSWGQGTQVTVSS
[6]; PTHR − CaCl2
  Kd: 17 nM
